This assay deals with amyloid β precursor-like protein 1 (Aplp1), on transfected SH-SY5Y cells (UniProt Q03157). Put plainly: cell surface-binding assay.
UniProt Q03157, sequence (Q03157 39-654): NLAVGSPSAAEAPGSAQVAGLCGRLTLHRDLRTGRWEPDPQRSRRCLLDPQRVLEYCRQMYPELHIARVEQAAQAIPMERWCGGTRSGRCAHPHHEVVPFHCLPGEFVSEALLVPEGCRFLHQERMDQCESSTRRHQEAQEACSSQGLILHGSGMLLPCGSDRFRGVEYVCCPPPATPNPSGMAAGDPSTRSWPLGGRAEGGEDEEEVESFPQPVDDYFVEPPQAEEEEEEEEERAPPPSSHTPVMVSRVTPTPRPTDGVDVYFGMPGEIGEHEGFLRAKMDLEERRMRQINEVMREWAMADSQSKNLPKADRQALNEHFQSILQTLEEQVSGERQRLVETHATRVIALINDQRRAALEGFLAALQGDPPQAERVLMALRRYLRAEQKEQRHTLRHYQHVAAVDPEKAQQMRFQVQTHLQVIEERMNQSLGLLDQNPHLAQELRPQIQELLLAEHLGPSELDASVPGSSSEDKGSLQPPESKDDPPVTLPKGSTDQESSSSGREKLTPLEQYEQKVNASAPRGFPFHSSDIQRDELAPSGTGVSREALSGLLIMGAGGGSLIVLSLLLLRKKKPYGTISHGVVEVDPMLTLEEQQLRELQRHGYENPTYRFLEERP

Consider β-amyloid-biotin PFF (peptide), for which the Kd (in general, the concentration at which binding is half-saturated) was greater than 3 µM.

The values above are taken from paper doi:10.1101/2021.05.01.442157.
